The labels stand for the following.
B3: MPP-processed MTP-FAγ51::NifU::TwinStrep fusion polypeptide encoded by SN166 (scar9::GG::NifU::TS) (other)
chain: not shown
notes: N-terminal analysis and the tryptic peptide ISTQVVR confirmed cleavage at the intended site; Purified from N. benthamiana leaves; also called scar9-NifU::TS; scar9-NifU-TwinStrep

The target of experiment [1] is T1, MPP-processed MTP-FAγ51::AnfD::Twin Strep fusion polypeptide (gene of SN177, expressed from multi-gene vector … (Azotobacter vinelandii, UniProt P16266 1-518)).
T1 construct: The eluted AnfD migrated at the size of the processed form; also called AnfD polypeptide (SL30)
T1 sequence (P16266 other isoform, or with tags, fused parts or gaps): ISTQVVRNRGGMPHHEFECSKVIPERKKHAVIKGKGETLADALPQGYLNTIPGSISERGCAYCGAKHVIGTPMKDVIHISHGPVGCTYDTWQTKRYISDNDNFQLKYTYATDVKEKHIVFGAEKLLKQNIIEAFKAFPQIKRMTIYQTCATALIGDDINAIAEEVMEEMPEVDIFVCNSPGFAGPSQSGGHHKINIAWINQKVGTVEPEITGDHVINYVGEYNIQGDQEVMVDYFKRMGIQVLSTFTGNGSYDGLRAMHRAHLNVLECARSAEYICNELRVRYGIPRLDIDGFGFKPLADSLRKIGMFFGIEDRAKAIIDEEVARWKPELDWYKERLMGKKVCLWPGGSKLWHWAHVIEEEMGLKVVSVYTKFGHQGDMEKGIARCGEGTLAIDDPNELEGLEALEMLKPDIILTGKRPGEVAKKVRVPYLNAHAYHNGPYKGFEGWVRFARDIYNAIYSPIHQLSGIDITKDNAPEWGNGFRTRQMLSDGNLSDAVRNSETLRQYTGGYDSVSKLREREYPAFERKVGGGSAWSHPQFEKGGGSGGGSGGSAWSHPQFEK
The experiment can be described thus: discussion of the AnfD::TwinStrep purification, aerobic.

Experiment [2] has as its target T2, MPP-processed MTP-FAγ51::HA::AnfD fusion polypeptide (gene of SN161; in SL26, SL34, SL43, SL93) (Azotobacter vinelandii, UniProt P16266 1-518).
T2 construct: also called HA::AnfD processed; AnfD polypeptide
Nature of the experiment: co-purification on Strep-tactin column through TwinStrep::AnfK (SL34), aerobic; anti-HA Western blot.

Experiment [3] addresses T3, MPP-processed MTP-FAγ51::NifS::HA fusion polypeptide encoded by SN31 (scar9::GG::NifS::HA) (Klebsiella oxytoca, UniProt P05344 1-397).
T3 construct: also called scar9-NifS::HA; processed NifS
T3 sequence: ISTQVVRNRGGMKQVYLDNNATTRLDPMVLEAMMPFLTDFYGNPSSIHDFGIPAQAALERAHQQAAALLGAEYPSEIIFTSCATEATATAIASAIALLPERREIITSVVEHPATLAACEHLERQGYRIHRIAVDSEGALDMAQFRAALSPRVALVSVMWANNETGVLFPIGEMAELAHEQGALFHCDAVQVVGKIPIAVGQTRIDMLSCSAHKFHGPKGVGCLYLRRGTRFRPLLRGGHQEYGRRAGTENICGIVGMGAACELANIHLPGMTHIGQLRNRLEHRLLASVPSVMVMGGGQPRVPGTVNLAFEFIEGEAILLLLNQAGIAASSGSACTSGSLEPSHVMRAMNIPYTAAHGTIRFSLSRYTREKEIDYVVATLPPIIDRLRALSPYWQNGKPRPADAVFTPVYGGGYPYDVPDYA
The experiment can be described thus: co-purification on StreptactinXT column through NifU::TS from N. benthamiana leaf extract (SN31 + SN166), anaerobic, non-denaturing; anti-HA Western blot.

Experiment [4] addresses T4, MPP-processed MTP-FAγ51::NifU::HA fusion polypeptide encoded by SN32 (scar9::GG::NifU::HA) (Klebsiella oxytoca, UniProt P05343 1-274).
T4 construct: also called scar9::NifU::HA; processed NifU
T4 sequence: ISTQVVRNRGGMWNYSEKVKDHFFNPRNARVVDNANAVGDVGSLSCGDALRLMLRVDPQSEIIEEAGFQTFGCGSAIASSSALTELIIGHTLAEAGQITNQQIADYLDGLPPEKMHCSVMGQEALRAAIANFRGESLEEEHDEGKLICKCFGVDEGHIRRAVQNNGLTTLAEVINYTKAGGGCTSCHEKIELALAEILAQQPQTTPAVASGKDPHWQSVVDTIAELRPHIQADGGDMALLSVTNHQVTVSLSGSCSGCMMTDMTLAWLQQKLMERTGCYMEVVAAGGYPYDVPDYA
Nature of the experiment: co-purification on StrepTactinXT column through NifS::TS from N. benthamiana leaf extract (SN231 + SN32); anti-HA Western blot.

In experiment [5] the target is B3. The experiment can be described thus: co-purification on StreptactinXT column through NifU::TS from N. benthamiana leaf extract (SN31 + SN166), anaerobic, anti-HA Western blot of the eluate.

B1: MPP-processed MTP-FAγ51::HA::AnfK fusion polypeptide (gene of SN129; in SL26, SL30, SL93) (enzyme)
chain: ISTQVVRNRGGYPYDVPDYAGGMTCEVKEKGRVGTINPIFTCQPAGAQFVSIGIKDCIGIVHGGQGCVMFVRLIFSQHYKESFELASSSLHEDGAVFGACGRVEEAVDVLLSRYPDVKVVPIITTCSTEIIGDDVDGVIKKLNEGLLKEKFPDREVHLIAMHTPSFVGSMISGYDVAVRDVVRHFAKREAPNDKINLLTGWVNPGDVKELKHLLGEMDIEANVLFEIESFDSPILPDGSAVSHGNTTIEDLIDTGNARATFALNRYEGTKAAEYLQKKFEIPAIIGPTPIGIRNTDIFLQNLKKATGKPIPQSLAHERGVAIDALADLTHMFLAEKRVAIYGAPDLVIGLAEFCLDLEMKPVLLLLGDDNSKYVDDPRIKALQENVDYGMEIVTNADFWELENRIKNEGLELDLILGHSKGRFISIDYNIPMLRVGFPTYDRAGLFRYPTVGYGGAIWLAEQMANTLFADMEHKKNKEWVLNVW
notes: also called HA::AnfK processed
Turning to B1, the binding result in experiment [1] is “binds”.

B2: MPP-processed MTP-CoxIV::Twin Strep::AnfK fusion polypeptide (gene of SN195; in SL34, SL37, SL43) (enzyme)
chain: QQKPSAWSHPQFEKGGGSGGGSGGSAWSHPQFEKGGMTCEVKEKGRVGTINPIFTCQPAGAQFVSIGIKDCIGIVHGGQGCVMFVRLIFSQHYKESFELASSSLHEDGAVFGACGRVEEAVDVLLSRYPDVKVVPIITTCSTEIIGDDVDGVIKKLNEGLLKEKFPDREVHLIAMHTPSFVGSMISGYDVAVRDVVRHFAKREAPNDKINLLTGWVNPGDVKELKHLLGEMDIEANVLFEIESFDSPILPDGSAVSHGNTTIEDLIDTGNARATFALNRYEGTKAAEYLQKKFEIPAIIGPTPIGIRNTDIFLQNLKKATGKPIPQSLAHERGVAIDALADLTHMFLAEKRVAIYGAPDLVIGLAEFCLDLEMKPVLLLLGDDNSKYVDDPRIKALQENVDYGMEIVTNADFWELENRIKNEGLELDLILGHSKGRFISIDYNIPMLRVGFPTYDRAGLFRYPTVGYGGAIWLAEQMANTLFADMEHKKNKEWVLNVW
notes: also called MTP-CoxIV::TwinStrep::AvAnfK
As for B2, in experiment [2], the binding result is given as “binds”.

On to B3, for which the binding result in experiment [3] is on record as “binds”.

B4: MPP-processed MTP-FAγ51::NifS::TwinStrep fusion polypeptide encoded by SN231 (scar9::NifS::TS) (enzyme)
chain: not shown
notes: the text names scar9::NifS::TS in the eluate; also called MTP-FAγ51::NifS::TS
B4: the binding result in experiment [4] is “binds”.

B5: unprocessed MTP-FAγ51::NifS::HA fusion polypeptide encoded by SN31 (enzyme)
chain: MMAMAVFRREGRRLLPSIAARPIAAIRSPLSSDQEEGLLGVRSISTQVVRNRGGMKQVYLDNNATTRLDPMVLEAMMPFLTDFYGNPSSIHDFGIPAQAALERAHQQAAALLGAEYPSEIIFTSCATEATATAIASAIALLPERREIITSVVEHPATLAACEHLERQGYRIHRIAVDSEGALDMAQFRAALSPRVALVSVMWANNETGVLFPIGEMAELAHEQGALFHCDAVQVVGKIPIAVGQTRIDMLSCSAHKFHGPKGVGCLYLRRGTRFRPLLRGGHQEYGRRAGTENICGIVGMGAACELANIHLPGMTHIGQLRNRLEHRLLASVPSVMVMGGGQPRVPGTVNLAFEFIEGEAILLLLNQAGIAASSGSACTSGSLEPSHVMRAMNIPYTAAHGTIRFSLSRYTREKEIDYVVATLPPIIDRLRALSPYWQNGKPRPADAVFTPVYGGGYPYDVPDYA
notes: Full-length translation product, not cleaved by MPP; also called unprocessed form of the NifS fusion polypeptide
With B5, the binding result in experiment [5] is listed as “no binding”.
